Laboratory results as given in the supplement of paper PMC10598134.
± gives the standard deviation.

Experiment: collision cross section of modified peptide (TIMS, N2, iRT-aligned); higher = larger / more extended gas-phase ion
How it was run: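 Collision cross section values rest on the Mason-Schamp equation applied to calibrated, run-aligned mobility data from synthetic peptides. Mobility (1/K0) was calibrated with three reference ions and aligned per run to the median iRT peptide deviation, and 1–3 technical replicates of the most abundant feature per charge state were averaged. Data came from a timsTOF Pro/HT in dda-PASEF mode (nitrogen, ~2.4 mbar) after a 120-min nanoflow C18 gradient at 60 °C.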

[1] = charge state: 2, modification: Trimethyl (K)
[2] = charge state: 3, modification: Trimethyl (K)
[3] = charge state: 2, modification: Methyl (K)
[4] = charge state: 3, modification: Methyl (K)
[5] = charge state: 2, modification: Acetyl (K)
[6] = charge state: 3, modification: Acetyl (K)
[7] = charge state: 2, modification: Dimethyl (K)
[8] = charge state: 3, modification: Dimethyl (K)
[9] = charge state: 2, modification: Citrullination (R)
[10] = charge state: 3, modification: Citrullination (R)
[11] = charge state: 2, modification: Butyryl
[12] = charge state: 3, modification: GlyGly (K)
[13] = charge state: 2, modification: Propionyl
[14] = charge state: 3, modification: Propionyl
[15] = charge state: 2, modification: Malonyl
[16] = charge state: 2, modification: Nitro (Y)
[17] = charge state: 3, modification: Methyl (R)

## SYGIPYIETSAK [_SY(Phospho (Y))GIPYIETSAK_]
Charge state: 2, modification: Phospho (Y)
  collision cross section: 390.55 ± 0.64 Å²

## GTVPDDAVEALADSLGKK [_GTVPDDAVEALADSLGK(Trimethyl (K))K_]
[1]
  collision cross section: 486.05 ± 4.8 Å²
[2]
  collision cross section: 534.79 ± 2.4 Å²

## DESFLGKLGGTLAR [_DESFLGK(Methyl (K))LGGTLAR_]
[3]
  collision cross section: 408.12 ± 0.81 Å²
[4]
  collision cross section: 471.83 ± 2.8 Å²

## GFPGAPGLPGLKGHR [_GFP(Hydroxyproline)GAPGLPGLKGHR_]
Charge state: 3, modification: Hydroxyproline
  collision cross section: 478.5 ± 1.8 Å²

## GTISAPGKVVTAAAQAK [_GTISAPGK(Acetyl (K))VVTAAAQAK_]
[5]
  collision cross section: 440.91 ± 2.6 Å²
[6]
  collision cross section: 515.28 ± 2 Å²

## VQGGALEDSQLVAGVAFKK [_VQGGALEDSQLVAGVAFK(Trimethyl (K))K_]
[1]
  collision cross section: 515.46 ± 1.1 Å²
[2]
  collision cross section: 564.46 ± 0.92 Å²

## VETTVTSLKTK [_VETTVTSLK(Formyl)TK_]
Charge state: 2, modification: Formyl
  collision cross section: 373.38 ± 0.89 Å²

## GGPGSTLSFVGKR [_GGPGSTLSFVGK(Acetyl (K))R_]
[5]
  collision cross section: 381.14 ± 0.21 Å²
[6]
  collision cross section: 429.09 ± 1.1 Å²

## FGTINIVHPKLGSYTK [_FGTINIVHPK(hydroxyisobutyryl)LGSYTK_]
Charge state: 2, modification: hydroxyisobutyryl
  collision cross section: 477.53 ± 1.6 Å²
Charge state: 3, modification: hydroxyisobutyryl
  collision cross section: 560.61 ± 2.1 Å²

## VYIASSSGSTAIKK [_VYIASSSGSTAIK(Dimethyl (K))K_]
[7]
  collision cross section: 434.74 ± 1.3 Å²
[8]
  collision cross section: 497.25 ± 0.75 Å²

## PGGLGSSSLYGLGASRPR [_PGGLGSSSLYGLGASR(Citrullination (R))PR_]
[9]
  collision cross section: 438.36 ± 0.2 Å²
[10]
  collision cross section: 521.04 ± 1.9 Å²

## TGGTQTDLFTCGKCK [_TGGTQTDLFTCGK(Butyryl)CK_]
[11]
  collision cross section: 444.65 Å²

## VNALKNLQVK [_VNALK(Butyryl)NLQVK_]
[11]
  collision cross section: 377.18 ± 0.8 Å²

## IHNAENIQPGEQKYEYK [_IHNAENIQPGEQK(GlyGly (K))YEYK_]
[12]
  collision cross section: 529.6 ± 1.2 Å²

## DSSPTTNSKLSALQR [_DSSPTTNSK(Propionyl)LSALQR_]
[13]
  collision cross section: 430.82 ± 2.1 Å²
[14]
  collision cross section: 498.95 Å²

## SITHSTVGSKGEK [_SITHSTVGSK(Propionyl)GEK_]
[13]
  collision cross section: 395.17 ± 0.94 Å²
[14]
  collision cross section: 443.25 ± 0.59 Å²

## SEASSEFAKK [_SEASSEFAK(GlyGly (K))K_]
Charge state: 2, modification: GlyGly (K)
  collision cross section: 362.55 ± 0.39 Å²
[12]
  collision cross section: 429.79 ± 1.1 Å²

## TLQKQSVVYGGK [_TLQK(Butyryl)QSVVYGGK_]
[11]
  collision cross section: 396.52 ± 0.85 Å²

## SLKLNTAEDAK [_SLK(Methyl (K))LNTAEDAK_]
[3]
  collision cross section: 364.71 ± 0.36 Å²
[4]
  collision cross section: 470.64 ± 4.7 Å²

## GSLGAQKLANTCFNEIEK [_GSLGAQK(Acetyl (K))LANTCFNEIEK_]
[5]
  collision cross section: 470.8 Å²

## GSLEKGSPEDK [_GSLEK(Propionyl)GSPEDK_]
[13]
  collision cross section: 368.76 ± 0.94 Å²

## SKLLFSNTAAQK [_SK(Butyryl)LLFSNTAAQK_]
[11]
  collision cross section: 402.3 ± 1.3 Å²

## SPDEAYAIAKK [_SPDEAYAIAK(Malonyl)K_]
[15]
  collision cross section: 371.15 ± 0.62 Å²

## SKHLQEQLNELK [_SK(Crotonyl)HLQEQLNELK_]
Charge state: 2, modification: Crotonyl
  collision cross section: 421.79 ± 0.28 Å²
Charge state: 3, modification: Crotonyl
  collision cross section: 491.86 ± 3.7 Å²

## VGTASVLQPVKK [_VGTASVLQPVK(Biotin)K_]
Charge state: 2, modification: Biotin
  collision cross section: 406.39 ± 1.1 Å²

## LGPNDQYK [_LGPNDQY(Nitro (Y))K_]
[16]
  collision cross section: 332.94 ± 1.8 Å²

## GFCFITYTDEEPVKK [_GFCFITYTDEEPVK(Butyryl)K_]
[11]
  collision cross section: 458.8 ± 0.51 Å²

## DFAFYNPRLQGK [_DFAFYNPR(Methyl (R))LQGK_]
Charge state: 2, modification: Methyl (R)
  collision cross section: 413.14 ± 0.67 Å²
[17]
  collision cross section: 469.16 ± 2.2 Å²

## LGTTPSVYGGAGGRGIR [_LGTTPSVYGGAGGR(Citrullination (R))GIR_]
[9]
  collision cross section: 423 ± 0.56 Å²
[10]
  collision cross section: 500.66 ± 24 Å²

## TLDEILQEKK [_TLDEILQEK(Butyryl)K_]
[11]
  collision cross section: 383.05 ± 1.3 Å²
Charge state: 3, modification: Butyryl
  collision cross section: 449.71 ± 2 Å²

## ISALQGKLSK [_ISALQGK(Malonyl)LSK_]
[15]
  collision cross section: 349.78 ± 0.6 Å²

## TSAYGPPTR [_TSAY(Nitro (Y))GPPTR_]
[16]
  collision cross section: 326.25 ± 1.1 Å²

## GRGLPGPAESLR [_GR(Methyl (R))GLPGPAESLR_]
[17]
  collision cross section: 459.68 ± 1.5 Å²

## SEASSEFAKK [_SEASSEFAK(Dimethyl (K))K_]
[7]
  collision cross section: 358.79 ± 0.58 Å²
[8]
  collision cross section: 422.66 ± 2.8 Å²
